Reference: US20240392024A1 (SHANGHAI CELGEN BIO PHARMACEUTICAL, published 2024)
Several values for one entry are separate records, joined by “and”; a condition that tells them apart may be missing. Equal values may be shown once.

T1: TNFR2-His (Sino Biological, 10417-H08H, NP_001057.1 Met1-Asp257, with multi-histidine tag expressed on … (human, UniProt P20333 23-257))
T1 construct: range 1-257; Bought protein; also called recombinant human TNFR2 protein; TNFR2-His antigen; not shown: C-terminal multi-histidine tag
T1 sequence (looked up): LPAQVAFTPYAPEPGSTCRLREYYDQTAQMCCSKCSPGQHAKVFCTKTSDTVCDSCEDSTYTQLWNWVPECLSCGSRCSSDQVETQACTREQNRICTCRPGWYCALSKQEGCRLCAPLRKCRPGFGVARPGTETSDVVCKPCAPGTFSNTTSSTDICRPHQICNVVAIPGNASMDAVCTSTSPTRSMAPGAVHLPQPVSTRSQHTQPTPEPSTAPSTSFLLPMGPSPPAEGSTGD

T2: human TNFR2 on the cell membrane (human, UniProt P20333 23-461)
T2 construct: whole, on cells; One molecule for all cell formats; also called TNFR2-CHO cells; CHO-TNFR2
T2 sequence (looked up): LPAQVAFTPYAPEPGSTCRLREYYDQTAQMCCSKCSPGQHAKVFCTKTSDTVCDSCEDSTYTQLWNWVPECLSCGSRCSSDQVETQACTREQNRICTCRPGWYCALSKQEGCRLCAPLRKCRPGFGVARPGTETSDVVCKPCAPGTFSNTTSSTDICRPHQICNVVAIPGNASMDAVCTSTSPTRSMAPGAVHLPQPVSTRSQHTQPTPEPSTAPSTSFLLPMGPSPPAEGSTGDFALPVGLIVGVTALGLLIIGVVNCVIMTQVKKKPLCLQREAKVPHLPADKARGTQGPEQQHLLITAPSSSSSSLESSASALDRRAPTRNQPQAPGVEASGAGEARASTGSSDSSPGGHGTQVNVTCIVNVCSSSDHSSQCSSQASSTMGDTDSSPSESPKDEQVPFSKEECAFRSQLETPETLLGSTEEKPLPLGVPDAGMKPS

T3: WT
T3 construct: also called T cells of wild-type (WT) mice; mouse TNFR2 on the cell membrane
T3 chain: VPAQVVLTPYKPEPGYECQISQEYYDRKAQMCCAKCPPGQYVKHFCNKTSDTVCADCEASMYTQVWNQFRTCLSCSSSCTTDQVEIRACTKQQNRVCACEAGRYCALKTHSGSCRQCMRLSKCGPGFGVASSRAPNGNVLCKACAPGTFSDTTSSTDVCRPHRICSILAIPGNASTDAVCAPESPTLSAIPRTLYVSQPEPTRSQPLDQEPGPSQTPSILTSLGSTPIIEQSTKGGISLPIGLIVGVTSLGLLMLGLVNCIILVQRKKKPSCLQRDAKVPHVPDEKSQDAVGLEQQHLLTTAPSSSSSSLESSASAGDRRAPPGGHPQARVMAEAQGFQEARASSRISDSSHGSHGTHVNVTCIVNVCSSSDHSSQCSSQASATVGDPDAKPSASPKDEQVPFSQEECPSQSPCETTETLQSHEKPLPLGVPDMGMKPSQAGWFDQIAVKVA


Legend:
[1] = biological target: T1, TNFR2-His (Sino Biological, 10417-H08H, …); assay: ELISA, coated TNFR2-His
Method in brief: (§1)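 Antibodies were serially diluted and incubated on blocked ELISA plates coated with C-terminally His-tagged recombinant human TNFR2. Detection used an enzyme-labelled anti-IgG secondary antibody, TMB development and a microplate reader, and the dilution series gave the EC50.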

[2] = biological target: T1, TNFR2-His (Sino Biological, 10417-H08H, …); assay: ELISA, plate coated with TNFR2-His
Method: To determine whether the human-mouse chimeric TNFR2 monoclonal antibody of the present invention can bind to recombinant human TNFR2 protein, in vitro ELISA test was conducted. Similar to the method described above, The plate was coated with TNFR2-His (Sino Biological, 10417-H08H, Assessment #NP_001057.1.Met1-Asp257, with multi-histidine tag expressed on C-terminus) antigens, and blocked with BSA, then added with gradient diluted human-mouse chimeric TNFR2 monoclonal antibodies for incubation. Then, secondary antibody Ap-anit-human IgG Fc (JacksonImmuno Research, 109-055-098) was added for incubation After TMB development, ELISA reading was performed.

[3] = biological target: T2, human TNFR2 on the cell membrane; assay: flow cytometry on Jurkat-TNFR2 cells
Method: (§2) Purified human-mouse monoclonal antibodies against TNFR2 were co-cultured with TNFR2 positive Jurkat cells (Jurkat cells were transfected with pcDNA3.4-TNFR2 plasmid using conventional methods, and after screening, stable and highly expressed TNFR2 Jurkat cell lines were obtained) and stained. The antibody binding intensity was analyzed by flow cytometry. The specific steps are as follows: Jurkat-TNFR2 was counted, centrifuged, resuspended, then added to a 96-deep well plate, and the supernatant was discarded. The anti-TNFR2 antibody was gradient diluted, and added to the 96-deep well plate, After incubation and wash, the secondary antibody FITC-anti-human IgG (Abcam: 6854) was added, and the samples were detected using Beckman CytoFLEX.

[4] = biological target: T2, human TNFR2 on the cell membrane; assay: flow cytometry on human PBMC, CD3+ T cells
Method: Purified anti-human TNFR2 human-mouse chimeric monoclonal antibodies were co-cultured with PBMC cells (Oricells) and stained. The binding of the antibody was analyzed by flow cytometry. The specific steps are as follows: PBMC cells (Oricells) were counted, centrifuged, resuspended, then added to a 96-deep well plate, and the supernatant was discarded. Diluted anti-TNFR2 monoclonal antibodies were added.

[5] = biological target: T1, TNFR2-His (Sino Biological, 10417-H08H, …); assay: BLI, antibody captured on AHC probe, TNFR2 in solution
Method: The GATOR (ProbeLife) detection instrument and AHC (Pall, 185064), Human antibody Capture probe were used to detect the dissociation constant (Kd) of human-mouse chimeric TNFR2 monoclonal antibody.
The human-mouse chimeric TNFR2 monoclonal antibodies were diluted to 50 nM in binding buffer (Q buffer [PBS (10 mM PH7.4)+0.02% Tween 20+0.2% BSA). The recombinant human TNFR2 protein was diluted in Q buffer with a 2-fold gradient starting from the highest concentration of 100 nM. The kinetic association assay was conducted by placing the antibody capture sensor in the continuously diluted antigen solutions mentioned above. The Octet Data Acquisition software was pened and the New Kinetics Experiment-Basic Kinetics mode was selected.

[6] = biological target: T1, TNFR2-His (Sino Biological, 10417-H08H, …); assay: competition ELISA, coated TNFR2-His, biotin-labeled TNFα fusion protein at fixed concentration
Method: (§3) The ELISA plate was coated with TNFR2-His antigen (Sino Biological, 10417-H08H, Assessment #NP_001057.1. Met1-Asp257, with multi-histidine tags expressed on C-terminus) and blocked, added with the gradient diluted TNFR2 monoclonal antibodies and biotin-labeled TNFα fusion protein of fixed concentration for incubation, then added with the secondary antibody Ap-Strepavidin (Herobio, 510401) for incubation. After development, the detection was performed using microplate reader.

[7] = biological target: T1, TNFR2-His (Sino Biological, 10417-H08H, …); assay: competition ELISA on coated TNFR2-His against biotin-labeled TNFα fusion protein at fixed concentration
Method: as §3

[8] = biological target: T2, human TNFR2 on the cell membrane; assay: flow cytometry, Jurkat-TNFR2 cells
Method: as §2

WT = biological target: T3, WT; assay: flow cytometry on ConA-stimulated spleen cells of WT mice, mCD3+ T cells
Method: (§4) The cells were stained again with Cy-3 anti-human IgG and FITC anti-mCD3 (BD, 555274) after washing, under the same incubation conditions. After washing, the detection was performed.

[9] = biological target: T2, human TNFR2 on the cell membrane; assay: competition flow cytometry, TNFR2 positive cells, TNFα fusion protein at fixed concentration
Method: Purified anti-human TNFR2 human-mouse monoclonal antibodies were co-cultured with TNFR2 positive cells and stained. The antibody binding intensity was analyzed by flow cytometry. The specific steps are as follows: cells were counted, centrifugated, resuspended, then added to a 96-deep well plate, and the supernatant was discarded. Gradient diluted anti-TNFR2 antibodies and TNFα fusion protein of fixed concentration were added. After incubation and wash, the secondary antibody PE-streptavidin (Biogen, 405203) was added for incubation, and the samples were detected using Beckman CytoFLEX.

[10] = biological target: T2, human TNFR2 on the cell membrane; assay: flow cytometry on ConA-stimulated spleen cells of hTNFR2-KI mice, mCD3+ T cells
Method: as §4

[11] = biological target: T2, human TNFR2 on the cell membrane; assay: flow cytometry, CHO-TNFR2 cells
Method in brief: (§5)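 Binding was measured by flow cytometry (Beckman CytoFLEX) on a CHO line stably overexpressing human TNFR2. Cells in 96-deep-well plates were exposed to serially diluted antibodies, washed and labelled with a fluorescent anti-IgG secondary antibody, and EC50 was determined across the dilutions.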

[12] = biological target: T2, human TNFR2 on the cell membrane; assay: flow cytometry on CHO-TNFR2 cells
Method in brief: as §5

[13] = biological target: T1, TNFR2-His (Sino Biological, 10417-H08H, …); assay: ELISA, plate coated with TNFR2-His; remark: listed apart in the source
Method in brief: as §1

[14] = biological target: T1, TNFR2-His (Sino Biological, 10417-H08H, …); assay: BLI, antibody captured on AHC probe, TNFR2-His in solution
Method in brief: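 Antibodies at 50 nM in Q buffer were held on antibody-capture sensors, and the sensors were then moved into recombinant human TNFR2 diluted 2-fold in Q buffer, starting from 100 nM. Q buffer was 10 mM PBS pH 7.4 with 0.02% Tween 20 and 0.2% BSA. The work used bio-layer interferometry on an Octet in Basic Kinetics mode, and Kon, koff and Kd come from these kinetic association measurements.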

EC50 [1] | EC50 [2] | EC50 [3] | percent of cells in the upper right quadrant (Q1-UR, CD3+ and anti-human IgG Fc+) [4] | Kd [5] | koff [5] | kon [5] | IC50 [6] | IC50 [7] | EC50 [8] | binding result (WT) | percent of cells in the upper right quadrant (Q2-UR, mCD3+ and anti-hIgG+) (WT) | IC50 [9] | percent of cells in the upper right quadrant (Q2-UR, mCD3+ and anti-hIgG+) [10] | EC50 [11] | EC50 [12] | EC50 [13] | Kd [14] | koff [14] | kon [14] | Binder
0.248 nM | 0.037 µg/mL | 14.2 µg/mL | 13.6% | 16.3 nM | 0.00469 s⁻¹ | 289000 M⁻¹ s⁻¹ | 0.642 µg/mL | 0.648 µg/mL and 4.34 nM |  |  |  |  |  |  |  |  |  |  |  | human-mouse chimeric TNFR2 monoclonal antibody 29A1-hFc (antibody, V domains shown, Mouse V regions of clone 29A1 with human constant regions) VH: QVQLQQSGAEVVRPGASVTLSCKASGYTFSDYEMHWVKQTPVHGLEWIGAIDPETGDTAYNQKFKDKARVTADKSSSTAYMELRSLTSEDSAVYYCTRDIHYYGSSLSYFDYWGQGTTLTVSS VL: DIVMTQSQKFMSTSVGDRVSVTCKASQNVGTNVAWYQQKPGQSPKVMIYSASYRYSGAPDRFTGSGSGTDFTLTVNNVQSEDLAEYFCQQYKTYPYTFGGGTKLEIE
0.319 nM | 0.0476 µg/mL | 0.0243 µg/mL |  | 25.3 nM | 0.00639 s⁻¹ | 253000 M⁻¹ s⁻¹ | 0.225 µg/mL | 0.229 µg/mL and 1.53 nM | 0.024 µg/mL | no binding | 0.9% | 0.417 µg/mL | 45% |  |  |  |  |  |  | human-mouse chimeric TNFR2 monoclonal antibody 7F2-hFc (antibody, V domains shown, Mouse V regions of clone 7F2 with human constant regions) VH: QVTLKESGPGILQPSQTLSLTCSFSGFSLNTFGLGVGWIRQPSGKGLEWLTHIWWNDDKYYNPALKSRLTISRDTSENLVFLKIANVDTADTATYYCARIEGLRRFDYWGQGTTLTVSS VL: DIQMTQSPSSLSASLGGKVTITCKTSQDINKFIAWYQHKPGKGPRLLIHYTSTLQPGIPSRFSGSGSGRDYSFSISDLEPEDIATYYCLQYANLWAFGGGTKLEIK
0.318 nM | 0.0475 µg/mL | 0.658 µg/mL |  | 21.9 nM | 0.00286 s⁻¹ | 131000 M⁻¹ s⁻¹ |  |  | 0.66 µg/mL | no binding | 1.02% |  | 43.6% | 0.951 nM | 0.142 µg/mL | 0.0782 µg/mL and 0.524 nM | 17.3 nM | 0.00156 s⁻¹ | 90500 M⁻¹ s⁻¹ | human-mouse chimeric TNFR2 monoclonal antibody 33C12-hFc (antibody, V domains shown, Mouse V regions of clone 33C12 with human constant regions; also called human-mouse chimeric 33C12 antibody) VH: DVKLVESGGGLVKPGGSLKLSCAASGFTFSDYTMSWVRQTPEKRLEWVATISTGGSYTYYPDSVKGRFTISRDNAKNTLYLQMSSLKSEDTAMYYCTRDGGYDGDYFDYWGQGTTLTVSS VL: ENVLTQSPAIMSASPGEKVTMTCRASSSVSSSYLHWYQQKSGASPKLWIYRTSNLASGVPARFSGSGSGTSYSLTISSVEAEDAATYYCQQYSGYPLTFGAGTRLELK
